Measured values published in the supplement of paper PMC12042874.
± gives the uncertainty stated by the source.

Test: amyloid nucleation score (Sup35N fusion, yeast selection) (log enrichment); library NNK2; higher = more nucleation; inactive = no reads after selection
How it was run: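 Nucleation score is defined as the DiMSum log enrichment of output over input reads, with centring on the mode score of non-aggregating sequences. A minimum of 100 input reads was required for each sequence. Reads came from Illumina sequencing of plasmid inserts from psi-negative yeast expressing Sup35N fused to peptides of 20 random codons, induced with 100 μM copper sulfate for 24 hours and grown 7 days at 30°C on medium lacking adenine and uracil.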

Substance	amyloid nucleation score
WTGGFSLQSVHCNQN	-0.393 ± 1.1
SVAFILVPNEWLVKRAASSG	-0.264 ± 0.45
YFELNLNVKRRGGKWYYSLI	1.16 ± 0.27
TLLFHTRSYVYICVLVWKQH	0.049 ± 0.8
IWGPVLYIMSGYSSVVTRF	6.561 ± 0.055
AICMAY	1.27 ± 0.095
IRYFR	0.371 ± 0.13
LLKVF	-1.01 ± 1.1
PFVNVM	-0.047 ± 0.38
RTFLDIIGQTLLYVLVTVLA	0.548 ± 0.46
TYVYNGAYVVGNWL	-0.964 ± 0.54
IMNMCISDKFSIVVSSYVRY	0.958 ± 0.36
LDIPNGNYVLMSYR	0.32 ± 0.44
NTGFTLMGCWPMYYCWSFSW	-0.073 ± 1
LGYGWFNVLTYTTI	-0.209 ± 0.65
NFPMSSFKEEIWLRTRVPLC	0.691 ± 0.66
QSWSRQSATGPWTLVCQRRP	0.69 ± 0.51
YGLLGFFGMQCCHNLCMYRG	2.02 ± 0.13
MNIAVIHNMVQGSKAPDYHF	4.67 ± 0.075
WHNYSYSRGIRRCHQMKHKR	1.46 ± 0.15
IFRLELNTIIPPSQYNASAH	4.57 ± 0.1
RLSVAFRRVRDRYVLLIFLP	0.548 ± 0.55
HVTMCKYYFWYMEIVVVKP	-0.456 ± 0.55
SLEPYMFCSILINFYFFISV	3 ± 0.14
IQWYNLYTENRMISKLRGSW	-0.547 ± 1.1

Substance	amyloid nucleation score
LLLHSIQIYDMRR	5.53 ± 0.089
GYCYYVPFMVGP	0.817 ± 0.8
CSCSVIGWFLHPVATVINLT	2.73 ± 0.07
RNPVTSIVQVHDKMGRRSKS	inactive
NVSGMFISMLIFRIMHHGQC	5.11 ± 0.055
WCSKKPDEFLTINAFRYWED	-0.736 ± 0.34
DPKHATYAKQRSGMYRYGHW	0.691 ± 0.43
TSRKTEFQPFAGSICLYMGI	0.18 ± 0.63
LTGWMFISWSLTIPRPPTIE	-0.849 ± 1.1
PYSTTNGHSGVWLRWLKGPC	0.569 ± 0.27
VDFTCLYSVNFRIHVYISDM	2.71 ± 0.2
YHEIFF	-0.243 ± 0.4
FVRNKLMADFFWLGFYN	-1.79 ± 0.63
VMYRCSRSALNLHVRRNWRW	0.455 ± 0.65
YGILCAKLTAVCL	1.44 ± 0.36
MRCKRYECSGDSWWGYSFAK	0.131 ± 0.27
QLVPRHNGTAKGCSGPLTRV	0.402 ± 0.26
GLFRWYNMDNYVQI	-0.604 ± 0.76
CPFVATGDP	-0.849 ± 1.1
MSGSDNLILYSSV	-0.212 ± 0.45
FCAYVAWLSSWNIQPAKGRG	1.1 ± 0.35
PFRSS	-0.415 ± 0.36
SYFYPCLRNLYLPLWWRSHS	-0.515 ± 0.38
YIKASKMPAEA	-0.216 ± 0.55
SYDVRVAKINSPLGG	-0.397 ± 0.79

Substance	amyloid nucleation score
LLDMYNYTGIF	inactive
GRTSDFKLWIGVCLLGSSYV	1.89 ± 0.2
VSGCV	-0.865 ± 0.54
SPLEKATRFPTWEQCTVASM	0.405 ± 0.23
STKITAESGR	0.502 ± 0.41
TVCFDSLNHITSFIRGRFSL	inactive
DLVVELGESQQPWPLVRSRP	0.6 ± 0.64
TFGTSFKYFMSWLIDRCCYL	-0.836 ± 1.1
FCMADVYSGTLRNNYHTSEV	-0.986 ± 0.31
VNQFNVIIKD	3.33 ± 0.1
PMFVSLVKFTYWSCTVFLGA	-0.582 ± 0.38
RMRLSYWHCISLGLVLLRPI	0.298 ± 0.39
VFPMVFTKGNANVCHI	0.886 ± 0.58
NTLTTFVIGGCCLRFEASYM	10.52 ± 0.077
STCLQD	-0.966 ± 1.1
KTLVKESCCNLNSRSDLWGL	-0.754 ± 0.76
VSKSFWGMGWSLRYSGFSRV	-0.262 ± 0.41
VHTARLTWDLGYSVRCYYWT	6.47 ± 0.074
DWCYYGG	inactive
MGNLCCVPRYYMHQVEYPRF	inactive
LRVMYHFNQCQFSYLRDFGR	8.38 ± 0.063
YSYVIWYMHHCFWLNLRKFM	0.979 ± 0.67
PGRLKCGNSRYFWYFDMRHV	inactive
NNRSGYEYVIEFRLTSAVHF	2.1 ± 0.13
GFFTPPRVRNNTSEGDVK	-0.418 ± 1.1

Substance	amyloid nucleation score
VKGHKRESSWNWRSDGNMWA	-0.111 ± 0.61
KMLPSGARDLMPMDLLDFMM	-0.234 ± 0.25
GTSRLNVEGGLYCRGSIVDV	-0.299 ± 0.37
SMTDRFPSIIYRECILWVTW	-0.035 ± 0.76
GKTYLDKLMGGLHRQDPGTR	1.28 ± 0.53
RNQNLLWNVSGIAFNKMRRK	4.02 ± 0.093
FNDHWARRRRDFVNIWFWSE	-0.047 ± 1.1
MVHLRGIDVMSILDSYCESG	0.544 ± 0.52
FTSSYKSAVRTLIFVLSESG	0.331 ± 0.36
TLRSETMSDWYSRLHGFVFK	0.988 ± 0.52
CCKMGRRDLRFLSDFVLCKL	inactive
SLDFAFRFFSICVICGQNAR	4.76 ± 0.082
LVLTDSAYRFFKRGDSVDKC	1.62 ± 0.1
FVNLRFSKVGWYDLF	-0.255 ± 0.65
SCGIVRERFIVFELWSVCSG	-0.147 ± 0.42
VKTRTFRTCRSHRIEFMDWV	-0.064 ± 1.1
QSPNHVHSLRPGLDQLSALP	-0.08 ± 0.39
ILALNWLFSICST	6.903 ± 0.035
GFLGCESREKEECSIKERLC	-0.515 ± 1
SFVVWTPWLSPSYACPRQIF	-0.124 ± 0.76
MGLSTRLH	inactive
LVCELYI	-0.171 ± 0.39
SSYPFNDPEMLG	-1.09 ± 0.33
HLCGC	inactive
ASYQRSCILRRFTFVSCILI	1.56 ± 0.17

Substance	amyloid nucleation score
CFVQLCACRYTIRNWGFRWL	inactive
MLCGINGMMSSTLVCGRAII	-0.161 ± 0.65
VGKRNLISMVGYPYD	-1.09 ± 0.39
TLYYIVRHQICANFYRMYNG	inactive
VSMAIFGSSNILYSIRSLLE	4.37 ± 0.082
SFRTLVP	-0.905 ± 0.63
PWHTSFALERKDMGHK	-0.094 ± 0.36
FSTQGTFVSVHGVADLAVCF	inactive
LTVYVFSDFSRATVGPSRWL	0.238 ± 0.48
CRSCEIVLGFLLSCNMCVLS	3.79 ± 0.06
TKICMASHATVFALYVYCSL	inactive
MTWGSISNNLVTRTTPTYIC	0.178 ± 0.56
LCISCNVGLGSIKVRNNAFA	6.12 ± 0.042
LWDLRSEYKFYINMDHFMTV	-1.4 ± 0.75
NLAFTNALVLLWNSVYLKDE	8.274 ± 0.058
QILSRGFAPWT	-1.54 ± 0.78
FNRGKVMCVAYNGCSRYLMD	-1.64 ± 0.75
RLCTVRSP	1.55 ± 0.14
RMNSYKLSKVYNT	-0.225 ± 1
FHSPLCSCQSSLKVEWGHSE	inactive
EYMTMDELDWWSRQCFGWAQ	1.64 ± 0.42
VTGRAFNVTHGDAVEI	0.299 ± 0.39
WLWNNG	0.485 ± 0.74
VMVDMGGWHEAWLVTSIRWS	0.889 ± 0.3
ELNLNS	0.695 ± 0.36
